Reference: ChEMBL document CHEMBL1155874, “Carbonic anhydrase activators: Activation of the human cytosolic isozyme III and membrane-associated isoform IV with amino acids and amines” (Bioorg Med Chem Lett, 2008)

How the values were obtained:
[1] = substrate: N[C@@H](Cc1c[nH]cn1)C(=O)O; experiment: (§1) Activity of human recombinant truncated CA4 at 10 uM stopped-flow CO2 hydration method
[2] = substrate: N[C@H](Cc1c[nH]cn1)C(=O)O; experiment: as §1
[3] = substrate: N[C@@H](Cc1c[nH]cn1)C(=O)O; experiment: (§2) Activity of human recombinant CA3 at 10 uM stopped-flow CO2 hydration method
[4] = substrate: N[C@H](Cc1c[nH]cn1)C(=O)O; experiment: as §2

B1: Carbonic anhydrase 4 (Homo sapiens), P22748 (protein)
chain: MRMLLALLALSAARPSASAESHWCYEVQAESSNYPCLVPVKWGGNCQKDRQSPINIVTTKAKVDKKLGRFFFSGYDKKQTWTVQNNGHSVMMLLENKASISGGGLPAPYQAKQLHLHWSDLPYKGSEHSLDGEHFAMEMHIVHEKEKGTSRNVKEAQDPEDEIAVLAFLVEAGTQVNEGFQPLVEALSNIPKPEMSTTMAESSLLDLLPKEEKLRHYFRYLGSLTTPTCDEKVVWTVFREPIQLHREQILAFSQKLYYDKEQTVSMKDNVRPLQQLGQRTVIKSGAPGRPLPWALPALLGPMLACLLAGFLR
kcat [1]: 4.3 ×10⁶ /s
kcat [2]: 3.8 ×10⁶ /s

B2: Carbonic anhydrase 3 (Homo sapiens), P07451 (protein)
chain: MAKEWGYASHNGPDHWHELFPNAKGENQSPVELHTKDIRHDPSLQPWSVSYDGGSAKTILNNGKTCRVVFDDTYDRSMLRGGPLPGPYRLRQFHLHWGSSDDHGSEHTVDGVKYAAELHLVHWNPKYNTFKEALKQRDGIAVIGIFLKIGHENGEFQIFLDALDKIKTKGKEAPFTKFDPSCLFPACRDYWTYQGSFTTPPCEECIVWLLLKEPMTVSSDQMAKLRSLLSSAENEPPVPLVSNWRPPQPINNRVVRASFK
kcat [3]: 1.8 ×10⁴ /s
kcat [4]: 16.9 ×10⁴ /s
